Source: publication PMC9519967 (2022)

Columns and labels:
Experiment in all cases: MST
[1] = target: Sos-C-Tail-8 truncated peptide (without GST) (UniProt Q07889)
[2] = target: Sos-C-Tail-6 truncated peptide (without GST) (UniProt Q07889)
[3] = target: Sos-C-Tail-5 truncated peptide (without GST) (UniProt Q07889)

Kd [1]: 71.1 µM | Kd [2]: 3.41 µM | Kd [3]: 2.36 µM
B1: His-tagged Grb3-3 N-terminal SH3 and SH2 domain (NSH3SH2Δ40) (domain or fragment)
chain: MEAIAKYDFKATADDELSFKRGDILKVLNEECDQNWYKAELNGKDGFIPKNYIEMKPHPFGNDVQHFKVLRDGAGKYFLWVVKFNSLNELVDYHRSTSVSRNQQIFLRDIE
modifications: Atto488 NHS ester label, 1:1 protein:dye
